B1: Recombinant human FHR-2 (rFHR-2), C-terminal 6×His (natural protein, UniProt P36980 19-270, looked up)
chain: EAMFCDFPKINHGILYDEEKYKPFSQVPTGEVFYYSCEYNFVSPSKSFWTRITCAEEGWSPTPKCLRLCFFPFVENGHSESSGQTHLEGDTVQIICNTGYRLQNNENNISCVERGWSTPPKCRSTISAEKCGPPPPIDNGDITSFLLSVYAPGSSVEYQCQNLYQLEGNNQITCRNGQWSEPPKCLDPCVISQEIMEKYNIKLKWTNQQKLYSRTGDIVEFVCKSGYHPTKSHSFRAMCQNGKLVYPSCEEK
modifications: DyLight 488 or DyLight 594, 3 to 4 labels per monomer (the labelled copies of the FRET assays; unlabelled where added in excess and in the ELISA)
notes: Complement factor H-related protein 2 (FHR-2), human; Labelled and unlabelled copies of the same construct are kept as one molecule; also called rFHR-2^488; rFHR-2^594; not shown: 6×His, C-terminal, kept

Legend:
[1] = molecular target: the molecule itself; test: FRET or BRET; monomer exchange: pre-equilibrated 488- and 594-labelled protein, then a >5 times molar excess of unlabelled rFHR added; loss of FRET signal followed; 37°C, PBS with 1 mg/mL IVIg; first-order exponential fit
[2] = molecular target: the molecule itself; test: FRET or BRET; monomer exchange: equimolar DyLight 488- and 594-labelled protein mixed and followed in time; 37°C, 200 ng/mL in degassed PBS with 1 mg/mL IVIg; first-order exponential fit
[3] = molecular target: B1; test: FRET or BRET; monomer exchange: pre-equilibrated 488- and 594-labelled protein, then a >5 times molar excess of unlabelled rFHR added; loss of FRET signal followed; 37°C, PBS with 1 mg/mL IVIg; first-order exponential fit; details: both partners purified

observed rate constant k of monomer exchange [3] [s⁻¹] | Binder | observed rate constant k of monomer exchange [1] [s⁻¹] | dissociation half-life [2] [min]
– | Recombinant human FHR-5 (rFHR-5), C-terminal 6×His (natural protein, UniProt Q9BXR6 19-569, looked up, DyLight 488 or DyLight 594, 3 to 4 labels per monomer (the labelled copies of the FRET assays; unlabelled where added in excess), Complement factor H-related protein 5 (FHR-5), human; Labelled and unlabelled copies of the same construct are kept as one molecule; also called rFHR-5^488; rFHR-5^594; not shown: 6×His, C-terminal, kept) EGTLCDFPKIHHGFLYDEEDYNPFSQVPTGEVFYYSCEYNFVSPSKSFWTRITCTEEGWSPTPKCLRMCSFPFVKNGHSESSGLIHLEGDTVQIICNTGYSLQNNEKNISCVERGWSTPPICSFTKGECHVPILEANVDAQPKKESYKVGDVLKFSCRKNLIRVGSDSVQCYQFGWSPNFPTCKGQVRSCGPPPQLSNGEVKEIRKEEYGHNEVVEYDCNPNFIINGPKKIQCVDGEWTTLPTCVEQVKTCGYIPELEYGYVQPSVPPYQHGVSVEVNCRNEYAMIGNNMITCINGIWTELPMCVATHQLKRCKIAGVNIKTLLKLSGKEFNHNSRIRYRCSDIFRYRHSVCINGKWNPEVDCTEKREQFCPPPPQIPNAQNMTTTVNYQDGEKVAVLCKENYLLPEAKEIVCKDGRWQSLPRCVESTAYCGPPPSINNGDTTSFPLSVYPPGSTVTYRCQSFYKLQGSVTVTCRNKQWSEPPRCLDPCVVSEENMNKNNIQLKWRNDGKLYAKTGDAVEFQCKFPHKAMISSPPFRAICQEGKFEYPICE | 0.0012 | < 30
0.00053 | Recombinant human FHR-1 (rFHR-1), CFHR1*A allotype, C-terminal 6×His (natural protein, UniProt Q03591 19-330, looked up, also called native rFHR-1; unlabeled rFHR-1; not shown: 6×His, C-terminal, kept) EATFCDFPKINHGILYDEEKYKPFSQVPTGEVFYYSCEYNFVSPSKSFWTRITCTEEGWSPTPKCLRLCFFPFVENGHSESSGQTHLEGDTVQIICNTGYRLQNNENNISCVERGWSTPPKCRSTDTSCVNPPTVQNAHILSRQMSKYPSGERVRYECRSPYEMFGDEEVMCLNGNWTEPPQCKDSTGKCGPPPPIDNGDITSFPLSVYAPASSVEYQCQNLYQLEGNKRITCRNGQWSEPPKCLHPCVISREIMENYNIALRWTAKQKLYLRTGESAEFVCKRGYRLSSRSHTLRTTCWDGKLEYPTCAKR | – | –
– | B1 | 0.0004 | < 30

— paper PMC5651247, “Factor H-Related (FHR)-1 and FHR-2 Form Homo- and Heterodimers, while FHR-5 Circulates Only As Homodimer in Human Plasma” (Frontiers in Immunology, 2017)
